Assay results taken from patent US20240383993A1.
Changes are numbered by the printed parent chain. One block for each binder: values may come before it.

Key:
[1] = molecular target: His-tagged cynomolgus 4-1BB protein (cynomolgus) (UniProt A9YYE7); test: ELISA, coated His-tagged 4-1BB, anti-human IgG-HRP
[2] = molecular target: human 4-1BB expressed on cells (human) (UniProt Q07011); test: flow cytometry on CHO-K1/hu4-1BB cells, anti-human Fc-Alexa Fluor 633
human 4-1BB expressed on cells (human), sequence (Q07011 24-255): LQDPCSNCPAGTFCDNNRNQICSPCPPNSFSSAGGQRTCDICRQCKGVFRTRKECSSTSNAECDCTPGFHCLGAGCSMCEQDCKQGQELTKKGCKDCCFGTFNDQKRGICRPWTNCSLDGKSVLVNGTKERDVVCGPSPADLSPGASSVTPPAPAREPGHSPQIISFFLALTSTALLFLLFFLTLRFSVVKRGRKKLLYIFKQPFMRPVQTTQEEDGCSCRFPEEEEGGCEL

His-tagged cynomolgus 4-1BB protein (cynomolgus), sequence (A9YYE7 entry or part of it): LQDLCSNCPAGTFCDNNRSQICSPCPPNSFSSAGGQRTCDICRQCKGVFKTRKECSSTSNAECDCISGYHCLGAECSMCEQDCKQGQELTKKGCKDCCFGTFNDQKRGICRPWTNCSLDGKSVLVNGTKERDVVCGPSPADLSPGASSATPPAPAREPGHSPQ

EC50 [1]: > 30 nM
B1: VV02-1LP-288 (Fc fusion, not shown: a dimerising Fc or GST; small tags and cut ends)
VHH: EVQVVESGGGLVQPGGSLRLSCAASGSSLDYSAIGWFRQAPGKEREGVLCISSSGDVTIYADSVKGRFTISRDNAKNTVYLQMNSLKPEDTAVYYCVAPRICSTYSSDDYWGQGTQVTVSS

EC50 [1]: > 30 nM
B2: VV02-1LP-417 (Fc fusion, not shown: a dimerising Fc or GST; small tags and cut ends)
VHH: B1 VHH with E1Q, V2L, V4L, S27F, S28A

Max (MFI) [2]: 233 MFI
B3: VV02-1SP (1)-73 huNb_1_1 (Fc fusion, not shown: a dimerising Fc or GST)
VHH: EVQLLESGGGLVQPGGSLRLSCAASGFTFSSSAMSWARQAPGKGLEWVSSIYSSGKTYYVESVKGRFTISRDNSKNTLYLQMNSLRAEDTAVYYCAKWKTLRVGVWDESDYWGQGTLVTVSS
